From paper PMC8565330 come the findings set out here.

The target in this data set is GST-G3BP1 (human, UniProt Q13283 1-466). The data set is described as follows: fluorescence anisotropy. In general terms: Polarisation of emitted light reports the rotation of a fluorescent probe.
Sequence of GST-G3BP1 (Q13283 whole entry): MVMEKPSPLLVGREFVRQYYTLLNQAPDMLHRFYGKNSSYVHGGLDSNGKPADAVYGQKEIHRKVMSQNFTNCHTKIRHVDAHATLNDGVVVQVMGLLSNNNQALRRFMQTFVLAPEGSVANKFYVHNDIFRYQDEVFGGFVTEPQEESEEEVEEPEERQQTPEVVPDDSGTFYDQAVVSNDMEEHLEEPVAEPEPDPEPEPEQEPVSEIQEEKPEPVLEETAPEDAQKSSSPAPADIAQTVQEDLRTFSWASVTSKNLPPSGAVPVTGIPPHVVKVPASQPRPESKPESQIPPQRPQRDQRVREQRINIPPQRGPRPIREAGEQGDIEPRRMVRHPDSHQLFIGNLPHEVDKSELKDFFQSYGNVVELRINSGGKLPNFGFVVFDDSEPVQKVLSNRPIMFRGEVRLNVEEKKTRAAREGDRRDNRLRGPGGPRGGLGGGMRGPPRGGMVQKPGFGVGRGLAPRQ

B1: NRAS rM4 (ssRNA)
RNA: GUGUAAAAGGGGCGGGUCUGGGUGCG
Broadly, the Kd is the constant that tells how readily two partners part at equilibrium. The low end stands for tighter binding, the high end for weaker binding. B1 returned a dissociation constant (Kd) of 266 ± 36 nM.

B2: PITX1 rM4 (ssRNA)
RNA: GAGCGCGGAAGCGCGCGCGCGCGCGCGCGG
On to B2, for which the Kd turned out to be 761 ± 73 nM.
